Data taken from patent US6936431.
One block for each substance: values may come before it.

Target: rat brain farnesyl:protein transferase (rat) (UniProt Q04631)
Experiment: cell-based or functional assay

50% inhibition: > 40 µM | fold decrease in affinity against CVIM, estimated by the concentration required for 50% inhibition: > 30 fold
Substance: CVIM with lysine at the X position (CVIK) (peptide)

50% inhibition: > 40 µM
Substance: CVIM with glycine at the X position (CVIG) (peptide)

fold decline in affinity: > 50 fold | fold decrease in affinity against CVIM, estimated by the concentration required for 50% inhibition: > 30 fold
Substance: CVIM with lysine at the A2 position (CVKM) (peptide)

50% inhibition: > 40 µM
Substance: CVIM with glutamic acid at the X position (CVIE) (peptide)

Concentration For 50% Inhibition: 100 µM
Substance: CAIL (COOH-terminal tetrapeptide of γ-Subunit of G protein)

fold decline in affinity: > 50 fold
Substance: CVIM with glutamic acid at the A2 position (CVEM) (peptide)

50% inhibition: 8 µM
Substance: CVIM with glycine at the A2 position (CVGM) (peptide)
